The record followed here is publication PMC3988799.

Series [1] in a line: limited trypsin digestion of plasma membranes ± α-factor, western blot. The following applies: glycan lost; control: epitope-tagged receptors with intact sites. For orientation: Immunoblotting shows a protein as a band on a membrane.
Series [2] concerns the target T1, Ste2-F204S (S. cerevisiae) (UniProt D6VTK4).
T1 sequence: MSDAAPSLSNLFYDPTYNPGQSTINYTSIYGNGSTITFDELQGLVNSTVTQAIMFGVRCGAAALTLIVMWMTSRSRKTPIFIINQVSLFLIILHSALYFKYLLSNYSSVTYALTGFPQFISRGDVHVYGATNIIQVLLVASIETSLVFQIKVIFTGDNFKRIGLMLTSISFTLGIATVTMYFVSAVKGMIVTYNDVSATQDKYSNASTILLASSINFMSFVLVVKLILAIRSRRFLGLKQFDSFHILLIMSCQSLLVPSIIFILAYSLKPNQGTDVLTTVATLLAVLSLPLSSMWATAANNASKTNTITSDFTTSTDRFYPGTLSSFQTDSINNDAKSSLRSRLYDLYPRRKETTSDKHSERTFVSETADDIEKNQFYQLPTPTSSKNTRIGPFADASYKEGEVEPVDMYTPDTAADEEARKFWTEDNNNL

B1: α-factor receptor (Ste2): T7-Ste2-N25Q,N32Q (protein)
parent chain: MSDAAPSLSNLFYDPTYNPGQSTINYTSIYGNGSTITFDELQGLVNSTVTQAIMFGVRCGAAALTLIVMWMTSRSRKTPIFIINQVSLFLIILHSALYFKYLLSNYSSVTYALTGFPQFISRGDVHVYGATNIIQVLLVASIETSLVFQIKVIFTGDNFKRIGLMLTSISFTLGIATVTMYFVSAVKGMIVTYNDVSATQDKYFNASTILLASSINFMSFVLVVKLILAIRSRRFLGLKQFDSFHILLIMSCQSLLVPSIIFILAYSLKPNQGTDVLTTVATLLAVLSLPLSSMWATAANNASKTNTITSDFTTSTDRFYPGTLSSFQTDSINNDAKSSLRSRLYDLYPRRKETTSDKHSERTFVSETADDIEKNQFYQLPTPTSSKNTRIGPFADASYKEGEVEPVDMYTPDTAADEEARKFWTEDNNNL
For the molecule B1, the structure_or_conformation entry in series [1] is reported as “no change”.

B2: Ste2-T326-GFP (receptor)
chain: MSDAAPSLSNLFYDPTYNPGQSTINYTSIYGNGSTITFDELQGLVNSTVTQAIMFGVRCGAAALTLIVMWMTSRSRKTPIFIINQVSLFLIILHSALYFKYLLSNYSSVTYALTGFPQFISRGDVHVYGATNIIQVLLVASIETSLVFQIKVIFTGDNFKRIGLMLTSISFTLGIATVTMYFVSAVKGMIVTYNDVSATQDKYFNASTILLASSINFMSFVLVVKLILAIRSRRFLGLKQFDSFHILLIMSCQSLLVPSIIFILAYSLKPNQGTDVLTTVATLLAVLSLPLSSMWATAANNASKTNTITSDFTTSTDRFYPGTLSS
B2: the endocytosis complementation assay: percent of co-expressing cells with one or more GFP fluorescent foci after α-factor treatment (fluorescence microscopy) in series [2] is > 80%.
